Experimental data published in patent US20220313607A1.

What was measured:
[1] = molecular target: Truncated amyloidogenic form of Serum Amyloid A, SAA(1-76) (Homo sapiens (Human)) (UniProt P0DJI8); assay: cell-based or functional assay
[2] = molecular target: Human Beta-Amyloid (1-40) (human); assay: cell-based or functional assay
[3] = molecular target: Recombinant β2-microglobulin variant β2m_D76N (Pongo pygmaeus (Bornean orangutan)) (UniProt P16213); assay: cell-based or functional assay
[4] = molecular target: Recombinant β2-microglobulin variant β2m_ΔN6 (Pongo pygmaeus (Bornean orangutan)) (UniProt P16213); assay: cell-based or functional assay
[5] = molecular target: Recombinant TTR variant TTR_S52P; assay: cell-based or functional assay
[6] = molecular target: Human Beta-Amyloid (1-40) (human); assay: SPR (ProteOn), Amyposomes flowed over immobilised fibrils; concentration as exposed PA; Aβ1-40 fibrils
[7] = molecular target: Recombinant TTR variant TTR_S52P; assay: SPR (ProteOn), Amyposomes flowed over immobilised aggregates; concentration as exposed PA; TTR aggregates

Sequence of Human Beta-Amyloid (1-40) (human) (peptide, as listed by the source): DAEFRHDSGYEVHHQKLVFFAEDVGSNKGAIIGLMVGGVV
Sequence of UniProt P0DJI8 (P0DJI8 other isoform, or with tags, fused parts or gaps limits assumed): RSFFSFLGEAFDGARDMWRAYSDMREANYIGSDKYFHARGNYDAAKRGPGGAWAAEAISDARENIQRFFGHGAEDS

- ThT fluorescence, residual aggregates after 72 h, protein:Amyposomes 1:50 [1]: 30%
- ThT fluorescence, residual aggregates after 24 h, peptide:Amyposomes 1:50 [2]: 40%
- ThT fluorescence, residual aggregates after 5 days, peptide:Amyposomes 1:50 [2]: 10%
- ThT fluorescence, final aggregation extent with respect to protein alone, D76N:Amyposomes 1:50 [3]: 36%
- ThT fluorescence, residual aggregates after 3 days, protein:Amyposomes 1:30 and 1:50 [3]: 15%
- ThT fluorescence, aggregation extent with respect to protein alone, protein:Amyposomes 1:50 [4]: 20%
- ThT fluorescence, residual aggregates, protein:Amyposomes 1:50 [4]: 50%
- ThT fluorescence, aggregation with respect to protein alone, TTR:Amyposomes 1:50 [5]: 40%
- ThT fluorescence, residual aggregates after 5 h, TTR:Amyposomes 1:50 [5]: 5%
- Kd [6]: 0.12 µM
- Kd [7]: 14.2 µM
Substance: Amyposomes (liposomes composed of sphingomyelin/cholesterol, functionalized with phosphatidic acid and with mApoE peptide covalently linked to the outer surface)
